Results taken from doi:10.1101/2022.07.01.498528 (bioRxiv, 2022).

B1: VHH cAb_(CMY-2)(250) (VHH)
VHH: QVQLVESGGGLVQPGGSLRLSCAASGSIFSIYGMGWYRQAPGKQRELVAEITSGGSTNYADSVKGRFTISRDNAKNTVYLQMNSLNPEDTAVYYCNADGTMWGAGDYWGQGTQVTVSS
B2: VHH cAb_(CMY-2)(254) (VHH)
VHH: QVQLVESGGGMVQPGGSLRLSCAASGFTFSNYDMSWVRRAPGKGPEWVSTINTGGGSTSYADSVKGRFTISRDNAKNTLYLQMNSLKPEDTALYYCTIDRGLHYSDLGEYDYWGQGTQVTVSS
B3: VHH cAb_(CMY-2)(272) (VHH)
VHH: QVQLVESGGGLVQPGGSLRLSCAASGSIFMIYAMGWYRQAPGKQRELVADITSGGSTDYTDSVKGRFTISRDKNTVYLQMNSLKPEDTAVYYCNADHGPGFGYDYWGQGTQVTVSS

Experiments:
[1] = biological target: OXA-48 β-lactamase (class D) (Klebsiella pneumoniae, OXA-48, UniProt Q6XEC0); experiment: BLI
[2] = biological target: AmpC P99 of Enterobacter cloacae (class C β-lactamase) (Enterobacter cloacae P99, UniProt P05364); experiment: BLI
[3] = biological target: VIM-4 β-lactamase (class B) (Pseudomonas aeruginosa, VIM-4, UniProt Q8KRJ3, strain); experiment: BLI
[4] = biological target: TEM-1 β-lactamase (class A) (Escherichia coli (assumed), TEM-1, UniProt P62593); experiment: BLI
[5] = biological target: CMY-1 β-lactamase (class C) (Klebsiella pneumoniae, CMY-1, UniProt P71420, strain); experiment: BLI
CMY-60 β-lactamase = CMY-60 β-lactamase (Escherichia coli entry (host isolate …, UniProt G3F7G8, strain)); experiment: ELISA
CMY-61 β-lactamase = CMY-61 β-lactamase (Escherichia coli entry (host isolate …, UniProt G3F7G9, strain)); experiment: ELISA
CMY-16 β-lactamase = CMY-16 β-lactamase (Proteus mirabilis entry (host isolate …, UniProt Q4LCT4, strain)); experiment: ELISA
CMY-42 β-lactamase = CMY-42 β-lactamase (Escherichia coli entry (host isolate …, UniProt F4YXC2, strain)); experiment: ELISA
CMY-58 β-lactamase = CMY-58 β-lactamase (Escherichia coli entry (host isolate …, UniProt F1C3E3, strain)); experiment: ELISA

Chain of OXA-48 β-lactamase (class D) (Q6XEC0 23-265): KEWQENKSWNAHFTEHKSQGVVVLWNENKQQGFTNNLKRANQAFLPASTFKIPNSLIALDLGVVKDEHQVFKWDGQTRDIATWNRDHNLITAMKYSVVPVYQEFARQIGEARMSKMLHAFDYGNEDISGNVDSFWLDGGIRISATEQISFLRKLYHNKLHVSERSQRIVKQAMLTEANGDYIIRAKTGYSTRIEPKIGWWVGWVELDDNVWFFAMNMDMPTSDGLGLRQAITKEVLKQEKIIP
Chain of AmpC P99 of Enterobacter cloacae (class C β-lactamase) (P05364 21-381): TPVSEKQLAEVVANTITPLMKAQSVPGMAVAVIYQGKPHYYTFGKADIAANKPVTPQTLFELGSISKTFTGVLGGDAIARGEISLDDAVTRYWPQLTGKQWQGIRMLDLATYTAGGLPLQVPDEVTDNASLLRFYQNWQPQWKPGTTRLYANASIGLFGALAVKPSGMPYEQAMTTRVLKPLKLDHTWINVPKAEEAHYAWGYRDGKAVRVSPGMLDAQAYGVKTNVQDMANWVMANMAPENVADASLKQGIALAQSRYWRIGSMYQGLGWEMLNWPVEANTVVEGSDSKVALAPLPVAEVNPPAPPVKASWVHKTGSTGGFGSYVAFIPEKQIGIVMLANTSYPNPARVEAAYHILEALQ
Chain of TEM-1 β-lactamase (class A) (P62593 24-286): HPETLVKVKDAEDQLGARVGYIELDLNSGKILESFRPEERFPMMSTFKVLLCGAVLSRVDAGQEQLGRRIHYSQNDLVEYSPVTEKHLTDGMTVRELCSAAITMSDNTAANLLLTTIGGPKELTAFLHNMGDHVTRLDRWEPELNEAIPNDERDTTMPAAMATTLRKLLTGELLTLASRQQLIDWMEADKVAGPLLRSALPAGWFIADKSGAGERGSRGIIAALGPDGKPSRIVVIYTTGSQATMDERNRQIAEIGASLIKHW

| Binder | binding result [1] | binding result [2] | binding result [3] | binding result [4] | binding result [5] | binding result (CMY-60 β-lactamase) | binding result (CMY-61 β-lactamase) | binding result (CMY-16 β-lactamase) | binding result (CMY-42 β-lactamase) | binding result (CMY-58 β-lactamase) |
| --- | --- | --- | --- | --- | --- | --- | --- | --- | --- | --- |
| B1 | no binding (tested: 500 nM) | binds | no binding (tested: 500 nM) | no binding (tested: 500 nM) |  |  |  |  |  |  |
| B2 | no binding (tested: 500 nM) | no binding (tested: 500 nM) | no binding (tested: 500 nM) | no binding (tested: 500 nM) | no binding (tested: 500 nM) | binds | binds | binds | binds | binds |
| B3 | no binding (tested: 500 nM) | no binding (tested: 500 nM) | no binding (tested: 500 nM) | no binding (tested: 500 nM) | no binding (tested: 500 nM) |  |  |  |  |  |
